According to paper PMC3046063 (Molecular Biology of the Cell, 2011):

Key:
His-Gαi3 [1] = biological target: T1, His-Gαi3 (UniProt P08753 1-354)
His-Gαi3 [2] = biological target: T1, His-Gαi3; assay: cell-based or functional assay
His-Gαi3 [3] = biological target: T1, His-Gαi3; assay: SEC

T1 sequence (P08753 whole entry): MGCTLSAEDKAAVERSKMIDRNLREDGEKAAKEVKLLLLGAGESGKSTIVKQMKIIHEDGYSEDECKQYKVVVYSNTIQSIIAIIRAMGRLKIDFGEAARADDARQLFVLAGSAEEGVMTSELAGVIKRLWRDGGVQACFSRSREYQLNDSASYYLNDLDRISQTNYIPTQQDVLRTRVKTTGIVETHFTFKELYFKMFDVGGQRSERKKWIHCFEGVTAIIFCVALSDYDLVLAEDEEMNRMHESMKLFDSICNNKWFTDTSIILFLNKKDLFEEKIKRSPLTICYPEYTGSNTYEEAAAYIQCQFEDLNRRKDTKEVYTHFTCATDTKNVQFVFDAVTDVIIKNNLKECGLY

B1: His-GIV-CTs (aa 1660–1870) (domain or fragment, UniProt Q3V6T2-3 1660-1870, looked up)
chain: SETLESRHHKIKTGSPGSEVVTLQQFLEESNKLTSVQIKSSSQENLLDEVMKSLSVSSDFLGKDKPVSCGLARSVSGKTPGDFYDRRTTKPEFLRPGPRKTEDTYFISSAGKPTPGTQGKIKLVKESSLSRQSKDSNPYATLPRASSVISTAEGTTRRTSIHDFLTKDSRLPISVDSPPAAADSNTTAASNVDKVQESRNSKSRSREQQSS
Kd (His-Gαi3 [1]): ~0.3 µM
steady-state GTPase activity of His-Gαi3 (50 nM) alone with 0-2 μM His-GIV-CTs (His-Gαi3 [2]): ~3 fold
stoichiometry N (His-Gαi3 [3]): 1 His-Gαi3:His-GIV-CTs
